Experimental data: the RNAGym collection of RNA variant scans (doi:10.7554/elife.90254)

B1: LINE1-full (parent)
chain: UACGUAGGUGGUUUUCCCCUGAUAGUGCUAAGGGGGCCUGGAAGUUUGGACUGGGCAGAGCUCAACACAGCGUGGCAAAGUGGCUGUGGCUAGACUGCCUCUCUGGAUUCCUCGUCACUCAGCAGGGCAUCUCUGAGAGAAAUGCC

Variants of: B1
Assay: self-cleavage, relative activity (ratio to wild type); higher = more cleavage; in vitro, sequencing; the parent is a self-cleaving ribozyme

| Variant | self-cleavage |
| --- | --- |
| UACGUAGGUGGUUUUCCCCUGAUAGUGCUAAGGGGGGCUGGAAGUUUGGACUGGGCAGAGCUCAGCACAGCGUGGCAAAGUGGCUGUGGCUAGACUGCCUCUCUGGAUUCCUCGUCACUCAGCAGGGCAUCUCUGAGAGAAAUGCC [C37G A65G] | 0 |
| UACGUAGGUGGUUUCCCCCUGAUCGUGCUAAGGGGGCCUGGAAGUUUGGACUGGGCAGAGCUCAACACAGCGUGGCAAAGUGGCUGUGGCUAGACUGCCUCUCUGGAUUCCUCGUCACUCAGCAGGGCAUCUCUGAGAGAAAUGCC [U15C A24C] | 1.84 |
| UACGUAGGUGGUUUUCCCCUGAUAGUGCUAAGGGGGCCUGGAAGUUUGGACUGGGCAGUGCUCAACACAGCGCGGCAAAGUGGCUGUGGCUAGACUGCCUCUCUGGAUUCCUCGUCACUCAGCAGGGCAUCUCUGAGAGAAAUGCC [A59U U73C] | 1.27 |
| UACGUAGGUGGUUUUCCCCUGAUAGUGCUAAGGGGGCCUGGAAGUUUGGACUGGGCAGAGAUCAACACAGCGUGGCAAAGUGGCUGUGGCUAGACUGCCUCUCUGGAUUCCUCGUCACUCAGCAGGGCAUCUCUGAGAGAAAUGCC [C61A] | 0.04 |
| UACGUAGGUGGUUUUCCCCUGAUAGUGCUAAGGGGGCCUGGAAGUUUGGACUGGGCAGAGCUCAACACAGCGUGGCAAAGUGGCUGUGGCUAGACUGCCUCUCUGGAUUCCUCGUCACUCAGCAGGGCAUCUCUGAGAGGAAUGUC [A140G C145U] | 0.62 |
| UACGUAGGUGGCUUUCCCCUGAUAGUGCUAAGGGGGCCUGGAAGUUUGGACUGGGCAGAGCUCAACACAGCGUGGCAAAGUGGCUGUGGCUAGACGGCCUCUCUGGAUUCCUCGUCACUCAGCAGGGCAUCUCUGAGAGAAAUGCC [U12C U96G] | 0.28 |
| UACGUAGGUGGUUUUCCCCUGAUAGUGCUAAGGGGGACUGGAAGUUUGGACUGGGCAGAGCUCAACACAGCGUGGCAAAGUGGCUGUGGCUAGACUGCCUCUCUGGAUUCCUCGUCACUCAGCAGGGCACCUCUGAGAGAAAUGCC [C37A U130C] | 1.39 |
| UACGUAGGUGGUUUUCCCCUGAUAGUGCUAAGGGGGCCUGGAAGUUUGGACUGGGCAGAGCUCAACACAGCGUGGCAAAGUGGCUGUGGCUAGACGGCCUCUCUGGAUUCCUCGUCACUUAGCAGGGCAUCUCUGAGAGAAAUGCC [U96G C120U] | 0.04 |
| UACGUAGGUGGUUUUCCCCUGAUAGUGCUAAGGGGGCCUGGAAGUUUGGACUGGGCAGAGCUCAACACAGCGAGGCAAAGUGGCUGUGGCUAGACUGCCUCUCUGGAUUCCUCGUCACUCAGCAGGGCAUCUCUGAGAGAGAUGCC [U73A A141G] | 1.74 |
| UACGUAGGUGGUUUUCCCCUGAUAGUGCUAAGGGGGCCUGGAAGUUUGGACUGGGCAGGGCUCAACACAGCGUGGCAAAGUGGCUGUGGCUAGACUGCCUCUCUGGAUUCCUCGUCACUCAGCAGAGCAUCUCUGAGAGAAAUGCC [A59G G126A] | 0.12 |
| UACGAAGGUGGUUUUCCCCUGAUAGUGCUAAGGGGGCCUGGAAGUUUGGACUGGGCAGAGCUCAACACAGCGUGGCAAAGUGGCUGUGGCUAGACUGCCUCUCUGGAUUCCUCGUCACUCAGCAGGGCAUCUCUGUGAGAAAUGCC [U5A A136U] | 1.11 |
| UACGUAGGUGGUUUUCCCCUGAUAGUGCUAAGGGGGCCUGGAAGUUUGGACUGGGCAGAGCUCAACACAGCGUGGCUAAGUGGCUGUGGCUAGACUGCCUCUCUGGAUUCCUCGUCACUCAGCUGGGCAUCUCUGAGAGAAAUGCC [A77U A124U] | 1.27 |
| UACGUAGGUGGUUUUCCCCUGAUAGUGCUAAGGGGGCCUGGAAGUUUGGACUGGGCAGAGCUCAACACAGCGUGGCAAAGUGGCUGUGGCUAGACUGCCUCACUGGAUUCCUCAUCACUCAGCAGGGCAUCUCUGAGAGAAAUGCC [U102A G114A] | 1.57 |
| UACGUAGGUGGUUUUCCCCUGAUAGUGCUAAGGGGGCCUGGAAGUUUGGGCUGGGCAGAGCUCAACACAGCGUGGCAAAGUGGCUGUGGCUAGACUGCCUCUCUGGAUUCCUCGUCACUCAGCAGGGCACCUCUGAGAGAAAUGCC [A50G U130C] | 1.05 |
| UACGUAGGUGGUUUUCCCCUGAUAGUGCUAAGUGGGCCUGGAAGUUUGGACUGGGCAGAGCUCAACACAGCGUGGCAAAGUGGCUGUGGCUAGACUGCCUCUCUGGAUUCCUCGUCACUCAGCAGGGCAUCUCUGAGAGAAGUGCC [G33U A142G] | 0.88 |
| UACGUAGGUGGUUUUCCCCUGAUGGUGCUAAGGGGGCCUGGAAGUUUGGACUGGGCAGAGCUAAACACAGCGUGGCAAAGUGGCUGUGGCUAGACUGCCUCUCUGGAUUCCUCGUCACUCAGCAGGGCAUCUCUGAGAGAAAUGCC [A24G C63A] | 0 |
| UACGUAGGUGGUUUUCCCCUGAUAGUGCUAAGGGGGCCUGGAAGUUUGGACUGGGCAGAGCUCAACACAGCGUGGCAAAGUGGCUGUGGCUAGACUGCCUCUCUGGAUUCCUCGUCACUCAGCAGAGCACCUCUGAGAGAAAUGCC [G126A U130C] | 1.41 |
| UACGUAGGUGGUUUUCCCCUGAUAGUGCUAAGGGGGCCUGGAAGUUUGGACUGGGCAGAGCUCAACACAGCGUGGCAAAGUGGCGGUGGCUAGACUGCCUCUCUGGAUUCCUCGUCACUCAGCAGGGCAUCUCCGAGAGAAAUGCC [U85G U134C] | 0.16 |
| CACGUAGGUGGUUUUCCCCUGAUAGUGCUAAGGGGGCCUGGAAGUUUGGACUGGGCAGAGCUCAACACAGCGUGGCAAAGUGGCUGUGGCUAGACUGCCUCUUUGGAUUCCUCGUCACUCAGCAGGGCAUCUCUGAGAGAAAUGCC [U1C C103U] | 0.29 |
| UACGUAGGUGGUUUUCCCCUGAUAGUGCUAAGGGGGCCUGGAAGUUUGGACUGGGCAGAGCUCAACACAACGUGGCAAAGUGGCUGUGGCUAGACUGCCUCUCUGGAUUCCUCGUCACUCAGCAGGGCAACUCUGAGAGAAAUGCC [G70A U130A] | 0.15 |

| Variant | self-cleavage |
| --- | --- |
| UACGUAGGUGGUUUUCCCCUGAUAGUGCUAAGGGGGCCUGGAAGUUAGGACUGGGCAGAGCUCAACACAGCGUGGCAAAGUGGCUGUGGCUAGACUGCCUCUCUGGAUUUCUCGUCACUCAGCAGGGCAUCUCUGAGAGAAAUGCC [U47A C110U] | 0.95 |
| UACGUAGGUGGUUUUCCCCUGAUAGUGCUAAGGGGGCCUGGAAGCUUGGACUGGGCAGAGCUCAACACAGCGUGGCAAAGUGGCUGUGGCUAGACUGCCUCUCUGGAUUCCUCGUCACUCAGCAGGGCAUCUCUAAGAGAAAUGCC [U45C G135A] | 1.28 |
| UACGUAGGUGGUUUUCCCCUGAUAGUGCUAAGGGGGCCUGGAAGUUUGGACUGGGCAGAGCUCAACACAGCGUGGCAAAGUGGCUGUGGCUAGACUGCCUCUCUGGAUUCCUCGUCACUCAGCAGGGCGUCUCUGUGAGAAAUGCC [A129G A136U] | 2.26 |
| UACGUAGGUGGUUUUCCCCUGGUAGUGCUAAGGGGGCCUGGAAGUUUGGACUGGGCAGAGCUCAACACAGCGUGGCAAAGUGGCUGUGGCUAGACUGCCUCUCUGGAUUCCUCGUCACUCAGCAGGGCAUCUCUGAGAGUAAUGCC [A22G A140U] | 1.05 |
| UACGUAGGUGGUUUUCCCCUGAUAGUGCUAAGGGGGCCUGGAAGUUAGGACUGGGCAGAGCUCAACAUAGCGUGGCAAAGUGGCUGUGGCUAGACUGCCUCUCUGGAUUCCUCGUCACUCAGCAGGGCAUCUCUGAGAGAAAUGCC [U47A C68U] | 0.13 |
| UACGUAGGUGGUUUUCCCCUGAUAGUGCUAAGGGGGCCUGGAAGUUUGGACUGGGCAGAGCUCAACACAGCGUAGCAAAGUGGCUGUGGCUAGACUGCCUCUCUGGAUUCCUCGUCACUCAGCCGGGCAUCUCUGAGAGAAAUGCC [G74A A124C] | 1.58 |
| UACGUAGGUGGUUUUCCCCUGAUAGUGCUAAGGGGGCCUGGAAGCUUGGACUGGGCAGAGCUCAACACAGCGUGGCAAAGUGGCUGUGGCUGGACUGCCUCUCUGGAUUCCUCGUCACUCAGCAGGGCAUCUCUGAGAGAAAUGCC [U45C A92G] | 0.08 |
| UACGUAGGUGGUUUUCCCCUGAUAGUGCUAAGGGGGCCUGGAAGUUUGGACUGGGCAGAGCUCAACACAGCGUGACAAAGUGGCUGUGGCUAGACUGCCUCUCUGGAUUCCUCGUCACUCAGCAGGGCAUCUCUGGGAGAAAUGCC [G75A A136G] | 1.35 |
| UACGUAGGUGGUUUUCCCCUGAUAGUGCUAAGGGGGCCUGGAAGUUCGGACUGGGCAGAGCUCAACACAGCGUGGCAAAGUGGCUGUGGCUAGACUGCCUCUCUGGAUUCCUCGUCACUCAGCAGGGCAUCUCUGAGAGAAAUGCC [U47C] | 1.47 |
| UACGCAGGUGGUUUUCCCCUGAUAGUGCUAAGGGGGCCUGGAAGUUUGGACUGGGCAGAGCUCAACACAGCGUGGCAAAGUGGCUGUGGCUAGACUGCCUCUCUGGAUUCCUAGUCACUCAGCAGGGCAUCUCUGAGAGAAAUGCC [U5C C113A] | 0.36 |
| UGCGUAGGUGGUUUUCCCCUGAUAGUGCUAAGGGGGCCCGGAAGUUUGGACUGGGCAGAGCUCAACACAGCGUGGCAAAGUGGCUGUGGCUAGACUGCCUCUCUGGAUUCCUCGUCACUCAGCAGGGCAUCUCUGAGAGAAAUGCC [A2G U39C] | 0.32 |
| UACGUAGGUGGUUUUCCCCUGAUAGUGCUAAGGGGGCCUGGAAGUUUGGACUGGGCAGAGCUCAACACAGCGUGGCAAAGUGGCUGUGGCUAGACUGCCUCUCUGGAUUCCUCGUCACUCAGCAGGGCAUCUCAGAGAGAAAUGCU [U134A C146U] | 0.6 |
| UACGUAGGUGGUUUUCCCCUGAUAGUGCUAAGGGGACCUGGAAGUUUGGACUGGGCAGAGCUCAACACAGCGUGGCAAAGUGGCUGUGGCUAGACUGCCUCUCUGGAUUCCUCGUCACUCAGCAGGGCAUCUCUGAGAGAAAUGCC [G36A] | 1.16 |
| UACGUAGGUGGUUUUCCCCUGAUAGUGCUAAGGGGGCCUGGAAGUUUGGACUGGGCAGAGCUCAACACAGCGUGGCAAAGUGGCUGUGGCUAGACUGCCUCUCUGGUUUCCUCGUCACUCAGCAGGGCAUCUCUGAGUGAAAUGCC [A107U A138U] | 2.59 |
| UACGUAGGUGGUUUUCCCCUGAUAGCGCUAAGGGGGCCUGGAAGUUUGGACUGGGCAGAGCCCAACACAGCGUGGCAAAGUGGCUGUGGCUAGACUGCCUCUCUGGAUUCCUCGUCACUCAGCAGGGCAUCUCUGAGAGAAAUGCC [U26C U62C] | 0.1 |
| UACGUAGGUGGUUUUCCCCUGAUAGUACUAAGGGGGCCUGGAAGUUUGGACUGGGCAGAGCUCAACACAGCGUGGCAAAGUGGCUGUGGCUAGACUGCCUCUCUGGAUUCCUCGCCACUCAGCAGGGCAUCUCUGAGAGAAAUGCC [G27A U115C] | 1.54 |
| UACGUAGGUGGUUUUCCCCUGAUAGUGCUAAGGGGGCCUGGAAGUUUGGACUGGGCAGAGCUCAACACAGCGUGGCAAAGUGGCUGUGGCUAGACUGCCUCUCUGAAUUCCUCGCCACUCAGCAGGGCAUCUCUGAGAGAAAUGCC [G106A U115C] | 1.43 |
| UACGUAGGUGGUUUUCCCCUGAAAGUGCUAAGGGGGCCUGGAAGUUUGGACUGGGCAGAGCUCAACACAGCGUGGCAAAGUGGCUGUGGCUAGACUGUCUCUCUGGAUUCCUCGUCACUCAGCAGGGCAUCUCUGAGAGAAAUGCC [U23A C98U] | 0.26 |
| UACGUAGGUGGUUAUCCCCUGAUAGUGCUAAGGGGGCCUGGAAGUUUGGACUGGGCAGAGCUCAACACAGCGUGGCAAAGUGGCUGUGGCUAGACUGCCUCUCUGGAUUCCUCGUCACUCAGCAGGGCAUCUCCGAGAGAAAUGCC [U14A U134C] | 1.62 |
